From patent US20240082389A1

Target: ALFA nanobody (ALFANb) fused to the N-terminus of PTGFRN, displayed on the exterior surface of exosomes (UniProt Q9P2B2)
Assay: IL-12 ELISA of loaded EVs

For “mouse IL-12 fused to ALFAtag peptide (ligand)”, the fold more IL-12 loaded per EV than on control EVs with IL-12 genetically fused to PTGFRN was 290 fold.
